To fix the notation:
B1: Tryptophan synthase alpha chain, P0A877 (parent)
chain: MERYESLFAQLKERKEGAFVPFVTLGDPGIEQSLKIIDTLIEAGADALELGIPFSDPLADGPTIQNATLRAFAAGVTPAQCFEMLALIRQKHPTIPIGLLMYANLVFNKGIDEFYAQCEKVGVDSVLVADVPVEESAPFRQAALRHNVAPIFICPPNADDDLLRQIASYGRGYTYLLSRAGVTGAENRAALPLNHLVAKLKEYNAAPPLQGFGISAPDQVKAAIDAGAAGAISGSAIVKIIEQHINEPEKMLAALKVFVQPMKAATRS

Variants of B1 are the subject of this series. To be noted: Escherichia coli (strain K12), reversible: yes, structure 1WQ5, whole UniProt chain shown.
Setting [1] is: pH 9, 54.1 °C, Thermal, DSC, Sodium tetraborate 1 mM, EDTA 1 mM.
[2] abbreviates: pH 9, Thermal, DSC, Sodium tetraborate 1 mM.
Where [3] appears, read: pH 7, 25 °C, GdnHCl, CD, Potassium phosphate 10 mM.
Where [4] appears, read: pH 7, 25 °C, GdnHCl, CD, Potassium phosphate 10 mM, transition: 3.

Values joined by “and” are separate entries in the source; they are usually repeats but may differ in a detail not shown here. Equal entries are not always repeated.

As to MERYESLFAQLKERKEGAFVPFVTLGDPGIEQSLKIIDTLIEAGADALELGIPFSDALADGPTIQNATLRAFAAGVTPAQCFEMLALIRQKHPTIPIGLLMYANLVFNKGIDEFYAQCEKVGVDSVLVADVPVEESAPFRQAALRHNVAPIFICPPNADDDLLRQIASYGRGYTYLLSRAGVTGAENRAALPLNHLVAKLKEYNAAPPLQGFGISAPDQVKAAIDAGAAGAISGSAIVKIIEQHINEPEKMLAALKVFVQPMKAATRS [P57A], under setting [1], the “ddG of mutation (higher = less stable)” value was found to be 0.04 kcal/mol and the “heat capacity change of unfolding” value came to 4.7 kcal/mol/K. Moreover, under setting [2], the Tm came to 54 °C; the “change of melting temperature, mutant - wild type (higher = more stable)” value (from here on “change of melting temperature, mutant”) was -0.1 °C; the “heat capacity change of unfolding” value turned out to be 4.7 kcal/mol/K; the “unfolding enthalpy (calorimetric)” value came to 121 kcal/mol.
MERYESLFAQLKERKEGAFVPFVTLGDPGIEQSLKIIDTLIEAGADALELGIPFSDPLADGATIQNATLRAFAAGVTPAQCFEMLALIRQKHPTIPIGLLMYANLVFNKGIDEFYAQCEKVGVDSVLVADVPVEESAPFRQAALRHNVAPIFICPPNADDDLLRQIASYGRGYTYLLSRAGVTGAENRAALPLNHLVAKLKEYNAAPPLQGFGISAPDQVKAAIDAGAAGAISGSAIVKIIEQHINEPEKMLAALKVFVQPMKAATRS [P62A]: under setting [1], the “ddG of mutation (higher = less stable)” value worked out at 0.52 kcal/mol and the “heat capacity change of unfolding” value turned out to be 4.9 kcal/mol/K.
Turning to MERYESLFAQLKERKEGAFVPFVTLGDPGIEQSLKIIDTLIEAGADALELGIPFSDPLADGPTIQNATLRAFAAGVTPAQCFEMLALIRQKHPTIAIGLLMYANLVFNKGIDEFYAQCEKVGVDSVLVADVPVEESAPFRQAALRHNVAPIFICPPNADDDLLRQIASYGRGYTYLLSRAGVTGAENRAALPLNHLVAKLKEYNAAPPLQGFGISAPDQVKAAIDAGAAGAISGSAIVKIIEQHINEPEKMLAALKVFVQPMKAATRS [P96A], under setting [1], the “ddG of mutation (higher = less stable)” value is 2 kcal/mol and the “heat capacity change of unfolding” value amounted to 3.6 kcal/mol/K. Further, under setting [2], the Tm was found to be 47.8 °C; the “change of melting temperature, mutant” value is -6.3 °C; the “heat capacity change of unfolding” value is 3.6 kcal/mol/K; the “unfolding enthalpy (calorimetric)” value came out at 113 kcal/mol.
As to MERYESLFAQLKERKEGAFVPFVTLGDAGIEQSLKIIDTLIEAGADALELGIPFSDPLADGPTIQNATLRAFAAGVTPAQCFEMLALIRQKHPTIPIGLLMYANLVFNKGIDEFYAQCEKVGVDSVLVADVPVEESAPFRQAALRHNVAPIFICPPNADDDLLRQIASYGRGYTYLLSRAGVTGAENRAALPLNHLVAKLKEYNAAPPLQGFGISAPDQVKAAIDAGAAGAISGSAIVKIIEQHINEPEKMLAALKVFVQPMKAATRS [P28A], under setting [3], the “ddG of mutation (higher = less stable)” value stood at 2.5 kcal/mol and the unfolding free energy was determined as 6.3 kcal/mol. Besides, under setting [4], the unfolding free energy was 2.2 kcal/mol and 4.1 kcal/mol.
Take MERYESLFAQLKERKEGAFVPFVTLGDGGIEQSLKIIDTLIEAGADALELGIPFSDPLADGPTIQNATLRAFAAGVTPAQCFEMLALIRQKHPTIPIGLLMYANLVFNKGIDEFYAQCEKVGVDSVLVADVPVEESAPFRQAALRHNVAPIFICPPNADDDLLRQIASYGRGYTYLLSRAGVTGAENRAALPLNHLVAKLKEYNAAPPLQGFGISAPDQVKAAIDAGAAGAISGSAIVKIIEQHINEPEKMLAALKVFVQPMKAATRS [P28G]: under setting [3], the “ddG of mutation (higher = less stable)” value worked out at 1.6 kcal/mol. Also, the unfolding free energy under setting [3] amounted to 7.2 kcal/mol; the unfolding free energy under setting [4] was 2.3 kcal/mol and 4.9 kcal/mol.
Turning to MERYESLFAQLKERKEGAFVPFVTLGDPGIEQSLKIIDTLIEAGADALELGIPFSDPLADGPTIQNATLRAFAAGVTPAQCFEMLALIRQKHPTIPIGLLMYANLVFNKGIDEFYAQCEKVGVDSVLVADVAVEESAPFRQAALRHNVAPIFICPPNADDDLLRQIASYGRGYTYLLSRAGVTGAENRAALPLNHLVAKLKEYNAAPPLQGFGISAPDQVKAAIDAGAAGAISGSAIVKIIEQHINEPEKMLAALKVFVQPMKAATRS [P132A], under setting [1], the “ddG of mutation (higher = less stable)” value amounted to 0.92 kcal/mol and the “heat capacity change of unfolding” value turned out to be 4.8 kcal/mol/K. Besides, under setting [2], the Tm was 51.5 °C; the “change of melting temperature, mutant” value was -2.6 °C; the “heat capacity change of unfolding” value was determined as 4.8 kcal/mol/K; the “unfolding enthalpy (calorimetric)” value was 121 kcal/mol.
Take MERYESLFAQLKERKEGAFVPFVTLGDPGIEQSLKIIDTLIEAGADALELGIPFSDPLADGPTIQNATLRAFAAGVTPAQCFEMLALIRQKHPTIPIGLLMYANLVFNKGIDEFYAQCEKVGVDSVLVADVGVEESAPFRQAALRHNVAPIFICPPNADDDLLRQIASYGRGYTYLLSRAGVTGAENRAALPLNHLVAKLKEYNAAPPLQGFGISAPDQVKAAIDAGAAGAISGSAIVKIIEQHINEPEKMLAALKVFVQPMKAATRS [P132G]: under setting [3], the “ddG of mutation (higher = less stable)” value stood at 0.6 kcal/mol and the unfolding free energy worked out at 8.2 kcal/mol. For the same variant, the unfolding free energy under setting [4] is 3.6 kcal/mol and 4.6 kcal/mol. Moreover, under setting [1], the “ddG of mutation (higher = less stable)” value turned out to be 0.78 kcal/mol and the “heat capacity change of unfolding” value came out at 5.1 kcal/mol/K. Under setting [2], the Tm is 51.8 °C; the “change of melting temperature, mutant” value was -2.3 °C; the “heat capacity change of unfolding” value amounted to 5.1 kcal/mol/K; the “unfolding enthalpy (calorimetric)” value amounted to 117 kcal/mol.
For the variant MERYESLFAQLKERKEGAFVPFVTLGDPGIEQSLKIIDTLIEAGADALELGIPFSDPLADGPTIQNATLRAFAAGVTPAQCFEMLALIRQKHPTIPIGLLMYANLVFNKGIDEFYAQCEKVGVDSVLVADVPVEESAPFRQAALRHNVAPIFICPPNADDDLLRQIASYGRGYTYLLSRAGVTGAENRAALPLNHLVAKLKEYNAAAPLQGFGISAPDQVKAAIDAGAAGAISGSAIVKIIEQHINEPEKMLAALKVFVQPMKAATRS [P207A], under setting [3], the “ddG of mutation (higher = less stable)” value stood at 1.8 kcal/mol and the unfolding free energy was determined as 7 kcal/mol. For the same variant, under setting [4], the “ddG of mutation (higher = less stable)” value turned out to be 2.2 kcal/mol and the unfolding free energy stood at 2.4 kcal/mol. For the same variant, under setting [2], the Tm was 47.4 °C; the “change of melting temperature, mutant” value is -6.7 °C; the “heat capacity change of unfolding” value stood at 4.9 kcal/mol/K; the “unfolding enthalpy (calorimetric)” value worked out at 95 kcal/mol.

As usually defined, the Tm is the temperature at the midpoint of the melting transition.

For the origin of these results see FireProtDB (doi:10.1002/prot.340090203).
